The values that follow come from patent US20070274969A1 (published 2007).

To fix the notation:
B1: human Bub1, endogenous (enzyme)
chain: MDTPENVLQMLEAHMQSYKGNDPLGEWERYIQWVEENFPENKEYLITLLEHLMKEFLDKKKYHNDPRFISYCLKFAEYNSDLHQFFEFLYNHGIGTLSSPLYIAWAGHLEAQGELQHASAVLQRGIQNQAEPREFLQQQYRLFQTRLTETHLPAQARTSEPLHNVQVLNQMITSKSNPGNNMACISKNQGSELSGVISSACDKESNMERRVITISKSEYSVHSSLASKVDVEQVVMYCKEKLIRGESEFSFEELRAQKYNQRRKHEQWVNEDRHYMKRKEANAFEEQLLKQKMDELHKKLHQVVETSHEDLPASQERSEVNPARMGPSVGSQQELRAPCLPVTYQQTPVNMEKNPREAPPVVPPLANAISAALVSPATSQSIAPPVPLKAQTVTDSMFAVASKDAGCVNKSTHEFKPQSGAEIKEGCETHKVANTSSFHTTPNTSLGMVQATPSKVQPSPTVHTKEALGFIMNMFQAPTLPDISDDKDEWQSLDQNEDAFEAQFQKNVRSSGAWGVNKIISSLSSAFHVFEDGNKENYGLPQPKNKPTGARTFGERSVSRLPSKPKEEVPHAEEFLDDSTVWGIRCNKTLAPSPKSPGDFTSAAQLASTPFHKLPVESVHILEDKENVVAKQCTQATLDSCEENMVVPSRDGKFSPIQEKSPKQALSSHMYSASLLRLSQPAAGGVLTCEAELGVEACRLTDTDAAIAEDPPDAIAGLQAEWMQMSSLGTVDAPNFIVGNPWDDKLIFKLLSGLSKPVSSYPNTFEWQCKLPAIKPKTEFQLGSKLVYVHHLLGEGAFAQVYEATQGDLNDAKNKQKFVLKVQKPANPWEFYIGTQLMERLKPSMQHMFMKFYSAHLFQNGSVLVGELYSYGTLLNAINLYKNTPEKVMPQGLVISFAMRMLYMIEQVHDCEIIHGDIKPDNFILGNGFLEQDDEDDLSAGLALIDLGQSIDMKLFPKGTIFTAKCETSGFQCVEMLSNKPWNYQIDYFGVAATVYCMLFGTYMKVKNEGGECKPEGLFRRLPHLDMWNEFFHVMLNIPDCHHLPSLDLLRQKLKKVFQQHYTNKIRALRNRLIVLLLECKRSRK
notes: mature; also called hBub1; Bub1 (U2OS cells)

The target in assay [1] is T1, SV40 large T antigen, wild-type (SV40, UniProt P03070 1-708).
T1 construct: also called wild-type T antigen; T Ag
As to the kind of experiment: co-immunoprecipitation from U2OS/T cell lysates.

The next assay has as its target T2, T antigen mutant D44N (SV40, UniProt P03070 1-708).
T2 construct: Defective DnaJ domain
As to the kind of experiment: co-immunoprecipitation from U2OS stable lines.

Assay [2] has as its target T1, SV40 large T antigen, wild-type. Kind of assay: co-immunoprecipitation from NIH3T3/T cell lysates.
The assay “human Bub1, endogenous” addresses B1. Kind of assay: co-immunoprecipitation from U2OS stable lines.

As to B1, the binding result (in assay [1]; in the assay with T antigen mutant D44N) was “binds” in each case.

B2: mouse Bub1, endogenous (enzyme)
chain: MDNLENVFRMFEAHMQSYTGNDPLGEWESFIKWVEENFPDNKEYLMTLLEHLMKEFLHKKNYHNDSRFINYCLKFAEYNSDRHQFFEFLYNQGIGTKSSYIYMSWAGHLEAQGELQHASAIFQTGIHNEAEPKELLQQQYRLFQARLTGIHLPAQATTSEPLHSAQILNQVMMTNSSPEKNSACVPKSQGSECSGVASSTCDEKSNMEQRVIMISKSECSVSSSVAPKPEAQQVMYCKEKLIRGDSEFSFEELRAQKYNQRKKHEQWVSEDRNYMKRKEANAFEEQLLKQKMDELHKKLHQVVELSHKDLPASENRPDVSLVCVGQNTCSQQELRGPSLSSISHQTSESSGEKPQEEPSVPLMVNAVNSTLLFPAANLPALPVPVSGQSLTDSRCVNQSVHEFMPQCGPETKEVCETNKVASINDFHTTPNTSLGMVQGTPCKVQPSPTVHTKEALGFIMDMFQAPTLPDISDDKDEWPSLDQNEDAFEAQFQKNAVSSGDWGVKKIMTLSSAFPIFEDGNKENYGLPQPKNKPLGARTFGERSLSKYSSRSNEMPHTDEFMDDSTVCGIRCNKTLAPSPKSIGDFTSAAQLSSTPFHKFPADLVQIPEDKENVVATQYTHMALDSCKENIVDLSKGRKLGPIQEKISASLPCPSQPATGGLFTQEAVFGLEAFKCTGIDHATVEDLSDANAGLQVECVQTLGNVNAPSFTVENPWDDELILKLLSGLSKPVTSYSNTFEWQSKLPAIKTKTEYQLGSLLVYVNHLLGEGAFAQVFEAIHGDVRNAKSEQKCILKVQRPANSWEFYIGMQLMERLKPEVHHMFIKFYSAHLFKNGSILVGELYSYGTLLNVINLYKNTSEKVMPQALVLTFAIRMLYMVEQVHSCEIIHGDIKPDNFILGHRFLEQADEDLATGLALIDLGQSIDMKLFPKGTVFTGKCETSGFQCPEMLSNKPWNYQIDYFGVAATIYCMLFGSYMKVKNEGGVWKPEGLFRRLPHLDMWEEFFHIMLNIPDCHNLPSLDFLRQNMKKLLEQQYSNKIKTLRNRLIVMLSEYKRSRK
notes: mature; also called mBub1; Bub1 (NIH3T3 cells)
For B2, the binding result in assay [2] is recorded as “binds”.

B3: T antigen deletion mutant dl89-97 (other)
chain: MDKVLNREESLQLMDLLGLERSAWGNIPLMRKAYLKKCKEFHPDKGGDEEKMKKMNTLYKKMEDGVKYAHQPDFGGFWDATEIPTYGTFNEENLFCSEEMPSSDDEATADSQHSTPPKKKRKVEDPKDFPSELLSFLSHAVFSNRTLACFAIYTTKEKAALLYKKIMEKYSVTFISRHNSYNHNILFFLTPHRHRVSAINNYAQKLCTFSFLICKGVNKEYLMYSALTRDPFSVIEESLPGGLKEHDFNPEEAEETKQVSWKLVTEYAMETKCDDVLLLLGMYLEFQYSFEMCLKCIKKEQPSHYKYHEKYYANAAIFADSKNQKTICQQAVDTVLAKKRVDSLQLTREQMLTNRFNDLLDRMDIMFGSTGSADIEEWMAGVAWLHCLLPKMDSVVYDFLKCMVYNIPKKRYWLFKGPIDSGKTTLAAALLELCGGKALNVNLPLDRLNFELGVAIDQFLVVFEDVKGTGGESRDLPSGQGINNLDNLRDYLDGSVKVNLEKKHLNKRTQIFPPGIVTMNEYSVPKTLQARFVKQIDFRPKDYLKHCLERSEFLLEKRIIQSGIALLLMLIWYRPVAEFAQSIQSRIVEWKERLDKEFSLSVYQKMKFNVAMGIGVLDWLRNSDDDDEDSQENADKNEDGGEKNMEDSGHETGIDSQSQGSFQAPQSSQSVHDHNQPYHICRGFTCFKKPPTPPPEPET
Regarding B3, the binding result with human Bub1, endogenous is “no binding”.
